Source: article PMC7900238, “A meet-up of two second messengers: the c-di-AMP receptor DarB controls (p)ppGpp synthesis in Bacillus subtilis” (Nature Communications, 2021)
Values belong to the molecule of their own block, whether it stands above or below them.

Tests used:
Rel = biological target: T1, Rel (Bacillus subtilis, UniProt O54408); assay: hydrolase assay, GTP formation by LC-MS/MS; type: biochemical; conditions: 1 mM pppGpp, 1 mM MnCl2, 5 mM Mg(OAc)2, HEPES:Polymix pH 7.5, 37 °C; without DarB
T1 construct: gene relA; full-length (734 residues), 10xHis-SUMO fusion from plasmid pVHP186 in E. coli Rosetta(DE3), SUMO tag cleaved, RNA-free

DarB = DarB (Bacillus subtilis, UniProt O31698); assay: biochemical
[1] = biological target: Rel, full length, purified, SUMO tag removed (B. subtilis, UniProt O54408 1-734); assay: cell-based or functional assay
[2] = biological target: T2, Rel^NTD, purified, as used in SEC-MALS and ITC (B. subtilis 168, UniProt O54408 1-391); assay: ITC; 10 µM Rel^NTD in the cell, 100 µM DarB in the syringe, 50 mM Tris-HCl pH 8.3, 200 mM NaCl, 20 °C; conditions: both partners purified
T2 construct: Rel, Bacillus subtilis 168, aa 1-391 (HYD and SYN domains); the only expression plasmid named is pGP3350 (Strep-tagged); The SEC-MALS methods speak of 'purified tag-free proteins', but no removal of the Strep tag from Rel^NTD is described; Monomer by SEC-MALS; source: E. coli Rosetta(DE3), purified (StrepTactin)

[3] = biological target: the molecule itself; assay: SEC-MALS; Rel^NTD and DarB alone or pre-mixed 1:1 (~1 mg/ml each) in 1× ZAP buffer (50 mM Tris-HCl, 200 mM NaCl, pH 7.5), Superdex 200 10/300GL; fractions on SDS-PAGE

Sequence of Rel, full length, purified, SUMO tag removed (O54408 whole entry): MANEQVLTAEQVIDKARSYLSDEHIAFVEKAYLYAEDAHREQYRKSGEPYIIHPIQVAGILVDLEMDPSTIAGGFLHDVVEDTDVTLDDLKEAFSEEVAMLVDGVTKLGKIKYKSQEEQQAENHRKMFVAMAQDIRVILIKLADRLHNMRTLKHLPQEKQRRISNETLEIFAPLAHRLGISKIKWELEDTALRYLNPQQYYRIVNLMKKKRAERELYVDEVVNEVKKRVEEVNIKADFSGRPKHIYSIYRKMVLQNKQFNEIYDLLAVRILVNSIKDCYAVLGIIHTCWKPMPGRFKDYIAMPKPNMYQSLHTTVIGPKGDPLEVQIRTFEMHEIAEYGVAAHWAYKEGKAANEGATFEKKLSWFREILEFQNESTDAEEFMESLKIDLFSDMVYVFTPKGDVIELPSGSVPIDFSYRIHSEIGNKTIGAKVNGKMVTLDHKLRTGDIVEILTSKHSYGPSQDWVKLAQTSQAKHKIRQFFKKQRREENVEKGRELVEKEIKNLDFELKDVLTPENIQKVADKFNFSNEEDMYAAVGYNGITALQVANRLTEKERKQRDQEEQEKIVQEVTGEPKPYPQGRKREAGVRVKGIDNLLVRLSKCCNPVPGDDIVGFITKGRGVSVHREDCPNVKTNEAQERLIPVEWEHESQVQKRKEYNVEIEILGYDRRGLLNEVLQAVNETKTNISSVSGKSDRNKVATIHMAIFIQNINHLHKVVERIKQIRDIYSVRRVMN
T2 sequence (O54408 1-391): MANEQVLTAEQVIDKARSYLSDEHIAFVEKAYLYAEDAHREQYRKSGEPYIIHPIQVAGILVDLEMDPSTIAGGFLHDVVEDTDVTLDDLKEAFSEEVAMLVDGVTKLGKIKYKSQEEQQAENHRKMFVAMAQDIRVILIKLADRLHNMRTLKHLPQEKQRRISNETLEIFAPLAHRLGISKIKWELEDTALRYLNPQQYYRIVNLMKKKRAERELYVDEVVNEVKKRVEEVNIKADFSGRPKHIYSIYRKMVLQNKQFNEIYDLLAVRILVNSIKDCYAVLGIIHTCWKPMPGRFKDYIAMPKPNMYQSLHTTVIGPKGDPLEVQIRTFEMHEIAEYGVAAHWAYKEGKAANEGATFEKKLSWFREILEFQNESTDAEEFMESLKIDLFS
T1 sequence (O54408 whole entry, the tested form may be a part): as the sequence (O54408 whole entry) above
Sequence of DarB (O31698 whole entry): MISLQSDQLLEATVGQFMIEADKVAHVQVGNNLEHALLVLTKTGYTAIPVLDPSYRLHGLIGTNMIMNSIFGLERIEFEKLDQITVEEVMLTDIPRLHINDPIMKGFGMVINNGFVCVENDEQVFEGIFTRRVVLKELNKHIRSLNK

Molecule: Nc1nc2c(ncn2[C@@H]2O[C@H](COP(=O)(O)OP(=O)(O)OP(=O)(O)O)[C@@H](OP(=O)(O)OP(=O)(O)O)[C@H]2O)c(=O)[nH]1 [pppGpp]
- hydrolase assay, GTP formation by LC-MS/MS (Rel): we determined the formation of GTP resulting from the hydrolysis of pppGpp

- Kd (DarB): ~45 nM
Molecule: Nc1ncnc2c1ncn2[C@@H]1O[C@@H]2COP(=O)(O)O[C@H]3[C@@H](O)[C@H](n4cnc5c(N)ncnc54)O[C@@H]3COP(=O)(O)O[C@H]2[C@H]1O [c-di-AMP]

- pppGpp hydrolase activity of purified Rel (0.5 µM) with DarB (5 µM), against Rel alone (8.7 pmol of GTP per pmol of Rel per minute) [1]: 6 fold
- pppGpp synthetase activity of purified Rel (0.5 µM) with DarB (5 µM), against Rel alone (1.1 pmol pppGpp per pmol of Rel per minute) [1]: 3 fold
- Kd [2]: 650 nM
- stoichiometry N [2]: 1
B1: DarB, purified, SUMO tag removed (natural protein, B. subtilis 168)
chain: ISLQSDQLLEATVGQFMIEADKVAHVQVGNNLEHALLVLTKTGYTAIPVLDPSYRLHGLIGTNMIMNSIFGLERIEFEKLDQITVEEVMLTDIPRLHINDPIMKGFGMVINNGFVCVENDEQVFEGIFTRRVVLKELNKHIRSLNK
notes: darB amplified from chromosomal DNA and cloned into pET-SUMO (pGP2972); Dimer by SEC-MALS; Apo form as made in E. coli; in some experiments preincubated or saturated with c-di-AMP (written as a condition of the assay); also called apo-DarB; c-di-AMP receptor DarB; source: E. coli Rosetta(DE3), purified (Ni-NTA; SUMO tag removed with SUMO protease)
- stoichiometry N [3]: 2
